Reference: US20150259408A1 (PROTHENA BIOSCIENCES, published 2015)

T1: human LAMA4 LG1-3 fragment displayed on 293 cells (pDisplay) (human, UniProt Q16363 830-1430, limits assumed)
T1 sequence: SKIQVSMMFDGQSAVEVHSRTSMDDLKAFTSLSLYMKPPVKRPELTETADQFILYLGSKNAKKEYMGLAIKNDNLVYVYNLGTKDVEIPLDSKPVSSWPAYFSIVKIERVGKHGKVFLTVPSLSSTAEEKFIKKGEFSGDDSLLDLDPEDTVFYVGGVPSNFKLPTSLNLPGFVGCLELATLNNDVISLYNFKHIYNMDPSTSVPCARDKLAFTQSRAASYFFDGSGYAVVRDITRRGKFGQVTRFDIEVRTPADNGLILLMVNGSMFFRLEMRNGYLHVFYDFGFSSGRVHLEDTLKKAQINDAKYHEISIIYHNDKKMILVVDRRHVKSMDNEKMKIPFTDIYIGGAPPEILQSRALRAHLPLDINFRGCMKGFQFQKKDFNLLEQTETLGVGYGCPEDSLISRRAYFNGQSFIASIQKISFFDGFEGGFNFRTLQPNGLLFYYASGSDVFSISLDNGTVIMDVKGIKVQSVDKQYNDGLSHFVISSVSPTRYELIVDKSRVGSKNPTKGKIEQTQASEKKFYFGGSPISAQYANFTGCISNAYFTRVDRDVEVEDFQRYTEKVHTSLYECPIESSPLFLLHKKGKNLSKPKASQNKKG

T2: recombinant mouse His-laminin-α4 (R&D Systems) (mouse, UniProt P97927 826-1816, limits assumed)
T2 construct: range 826-end (only the start, Q826, is stated); Bought protein; also called Murine LAMA4; not shown: 6x His tag
T2 sequence (looked up): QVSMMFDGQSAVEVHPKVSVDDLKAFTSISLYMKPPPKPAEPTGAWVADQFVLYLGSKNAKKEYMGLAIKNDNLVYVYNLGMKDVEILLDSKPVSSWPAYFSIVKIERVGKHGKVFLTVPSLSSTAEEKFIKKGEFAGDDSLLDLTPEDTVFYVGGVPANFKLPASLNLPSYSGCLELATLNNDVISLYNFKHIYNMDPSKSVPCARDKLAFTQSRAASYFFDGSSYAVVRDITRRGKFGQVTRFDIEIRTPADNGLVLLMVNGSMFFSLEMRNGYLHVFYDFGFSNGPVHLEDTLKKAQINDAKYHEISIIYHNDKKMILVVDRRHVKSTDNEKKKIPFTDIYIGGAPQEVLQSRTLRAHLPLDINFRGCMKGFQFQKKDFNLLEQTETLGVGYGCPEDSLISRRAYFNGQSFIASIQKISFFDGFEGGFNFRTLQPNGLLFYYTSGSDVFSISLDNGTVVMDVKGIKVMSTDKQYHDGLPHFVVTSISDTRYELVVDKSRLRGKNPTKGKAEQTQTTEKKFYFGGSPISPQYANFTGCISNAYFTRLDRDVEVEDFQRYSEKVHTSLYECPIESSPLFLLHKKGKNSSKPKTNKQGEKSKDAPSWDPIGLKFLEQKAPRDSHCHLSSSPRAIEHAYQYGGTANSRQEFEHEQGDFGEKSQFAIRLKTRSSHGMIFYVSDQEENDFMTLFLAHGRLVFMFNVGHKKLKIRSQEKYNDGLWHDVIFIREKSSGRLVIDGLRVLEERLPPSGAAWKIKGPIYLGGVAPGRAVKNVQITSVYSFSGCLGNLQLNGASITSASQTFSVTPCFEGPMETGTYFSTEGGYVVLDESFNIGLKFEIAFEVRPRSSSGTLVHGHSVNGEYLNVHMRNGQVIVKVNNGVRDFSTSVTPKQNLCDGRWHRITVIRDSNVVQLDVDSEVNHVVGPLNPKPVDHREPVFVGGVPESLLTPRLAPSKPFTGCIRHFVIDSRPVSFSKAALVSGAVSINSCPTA

T3: recombinant human His-laminin-α4 (R&D Systems) (human, UniProt Q16363-2 826-1816, limits assumed)
T3 construct: range 826-end (only the start, Q826, is stated); Bought protein; also called Human LAMA4; human His-laminin-α4 fragment starting at Q826; not shown: 6x His tag
T3 sequence (looked up): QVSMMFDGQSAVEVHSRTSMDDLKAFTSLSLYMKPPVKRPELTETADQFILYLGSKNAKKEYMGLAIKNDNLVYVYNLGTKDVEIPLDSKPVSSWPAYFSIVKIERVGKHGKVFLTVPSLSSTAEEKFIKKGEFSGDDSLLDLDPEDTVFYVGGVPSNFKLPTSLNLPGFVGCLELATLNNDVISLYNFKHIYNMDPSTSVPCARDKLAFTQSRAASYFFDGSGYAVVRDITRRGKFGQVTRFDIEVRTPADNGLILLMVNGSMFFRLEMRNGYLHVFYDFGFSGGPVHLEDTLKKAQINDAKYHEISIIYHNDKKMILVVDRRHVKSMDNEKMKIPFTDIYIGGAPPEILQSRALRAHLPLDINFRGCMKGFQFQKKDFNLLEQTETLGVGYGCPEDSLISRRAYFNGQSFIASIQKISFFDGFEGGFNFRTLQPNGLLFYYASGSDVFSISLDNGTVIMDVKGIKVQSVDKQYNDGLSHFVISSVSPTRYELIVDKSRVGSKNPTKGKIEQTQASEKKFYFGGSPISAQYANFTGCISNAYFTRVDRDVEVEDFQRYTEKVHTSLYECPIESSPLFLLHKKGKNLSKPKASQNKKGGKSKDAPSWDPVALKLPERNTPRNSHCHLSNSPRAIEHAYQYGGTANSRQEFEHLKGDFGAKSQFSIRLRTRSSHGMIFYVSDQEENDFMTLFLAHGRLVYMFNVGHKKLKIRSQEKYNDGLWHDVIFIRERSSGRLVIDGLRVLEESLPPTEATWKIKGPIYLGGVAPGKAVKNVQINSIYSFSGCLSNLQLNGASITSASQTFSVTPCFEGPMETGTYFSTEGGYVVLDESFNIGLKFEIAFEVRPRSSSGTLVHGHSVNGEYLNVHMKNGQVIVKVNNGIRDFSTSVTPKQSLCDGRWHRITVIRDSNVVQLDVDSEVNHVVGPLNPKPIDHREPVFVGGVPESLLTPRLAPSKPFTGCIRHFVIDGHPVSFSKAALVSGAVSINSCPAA


Key:
[1] = target: T1, human LAMA4 LG1-3 fragment displayed on …; experiment: flow cytometry on 293 cells displaying LAMA4 fragments (pDisplay)
Protocol: Monoclonal antibodies against the LG4-5 modules of the G domain of LAMA4 were generated as described in Materials and Methods. The specific binding between the monoclonal antibodies and the LG4-5 modules of the G domain of LAMA4 was confirmed by assessing the monoclonal antibodies' ability to stain LAMA4-fragment-displaying human embryonic kidney 293 cells by flow cytometry. Fluorescent signal was assessed via flow cytometric analyses and plotted as mean fluorescence intensity (MFI) as shown in FIG. 1. A LG1-3-specific LAMA4 antibody was able to bind 293 cells displaying LG1-5 and LG1-3, but not LG4-5 of the LAMA4 protein. Conversely, clones 6C12, 13G10, and 15F7 were able to specifically bind 293 cells displaying LG1-5 and LG4-5, but not LG1-3.
Human LAMA4 G-domains 1-5 and variants were cloned into pDisplay expression construct (Life Technologies) and transiently transfected into 293 cells using standard procedures. Anti-LAMA4 antibodies were incubated with cells for 30 min at 4° C. and followed by anti-mouse-650 for 30 minutes at 4° C. Cells were analyzed for anti-laminin binding by flow cytometry using standard procedures.

[2] = target: recombinant LG4-5 of LAMA4 coated on ELISA plates; experiment: cell-based or functional assay
[3] = target: laminin 411 (LAMA4 in complex with gamma1 and beta1 chains); experiment: cell-based or functional assay
[4] = target: T2, recombinant mouse His-laminin-α4 (R&D …); experiment: SPR (Biacore T200); Fab or captured-IgG format not given
[5] = target: T3, recombinant human His-laminin-α4 (R&D …); experiment: as above

Row | Binder | binding result [1] | inhibition of LAMA4-mediated WM-266-4 human melanoma cell adhesion (antibody at 20 ug/ml) [2] [%] | inhibition of laminin-411-induced pAkt activation (pAkt/Akt ratio by immunoblot, WM266.4 cells; 20 ug/ml 15F7, 10 ug/ml laminin 411) [3] [%] | Kd [4] [nM] | koff [4] [s⁻¹] | kon [4] [M⁻¹ s⁻¹] | Kd [5] [nM] | koff [5] [s⁻¹] | kon [5] [M⁻¹ s⁻¹]
1 | mouse monoclonal antibody 15F7 (antibody, V domains shown, Mouse hybridoma antibody; Mouse IgG1 is used as its control; also called m15F7; LG4-5-specific antibody 15F7) VH: QVQLQQSGTELARPGAAVKLSCKASGYTFTSYGLSWVKQRAGQGLEWIGEIFPRSGNTYYNEKFKGKATLTADKSSSTAYMELRSLTSEDSAVYFCARGVRSPGAMDYWGQGTSVTVSS VL: DIQMTQSSSSFSVSLGDRVTITCKASEDIYNRLAWYQQKPGNAPRLLISGATSLETGVPSRFSGSGSGKDYTLSITSLQTEDVATYYCQQYWSIPYTFGGGTNLEIKR | no binding | ≥ 35 | ~50 | 0.627 | 0.000658 | 1.05e+06 | 0.684 | 0.000781 | 1.14e+06
2 | mouse monoclonal antibody 13G10 (antibody, V domains shown) VH: QVQLQQSGAELARPGASVKLSCKASGYTFTNYGISWVKQRTGQGLEWIGAIYPRSGNTYYNEKFKGKATLTADKSSSTAYMELRSLTSEDSAVYFCARERDYGSSYALDYWGQGTSVTVSS VL: DIQMTQSSSSFSVSLGDRVTITCKASEDIYNRLAWYQQKPGNAPRLLISGATSLETGVPSRFTGSGSGKDYTLSITSLQTEDVATYYCQQYWSPPRTFGGGTKLEIKR | no binding | ≥ 35 |  | 11.9 | 0.00449 | 378000 | 24.4 | 0.0074 | 302000
3 | mouse monoclonal antibody 6C12 (antibody, V domains shown) VH: QVQLQQPGAELVKPGASVKLSCKASGYTFTTYWMHWVKQRPGQGPEWIGMIHPYSGAINYNEKFKSKATLTVDKSSSTAYMQLSSLTSEDSAVYYCVKQLRLLYYFDYWGQGTTLTVSS VL: DIVMTQSPSSLTVTAGEKVTMSCKSRQSLLNSGNQKNYLTWYQQKPGQPPKVLIYWASTRESGVPDRFTGSGSGTDFTLTISSVQAEDLAVYYCQNDYSYPLTFGAGTKLELKR | no binding | ≥ 35 |  | 2.38 | 0.00111 | 469000 | 3.11 | 0.00102 | 328000
